For orientation: IC50 means the midpoint of a concentration-inhibition curve. Higher therefore signals weaker potency.

For assay [1], the target named is prostate specific membrane antigen (human (human prostate LNCaP cells), UniProt Q04609 1-750). The assay is described as follows: cell-based or functional assay.
Assay [2] addresses T1, gastrin-releasing peptide receptor (human (human prostate PC-3 cells), UniProt P30550 1-384).
T1 construct: whole, on cells; Endogenous receptor on PC-3 cells; also called GRPR; GRPr
The assay is described as follows: competitive displacement of 125I-(Tyr4)-BBN on GRPR-positive PC-3 cells. The method, then: (§1) (NAAG) as the radioligands. For the GRPR-positive assay, 3×10⁴ PC-3 cells (in D-MEM/F-12 K media containing 0.01 M MEM and 2% BSA, pH=5.5) were incubated with 20,000 counts per minute of [¹²⁵I-(Tyr4)-BBN] and increasing concentrations (1×10⁻¹³-1×10⁻⁵ M) of the metallated targeting vector (1 h, 37° C., 5% CO₂-enriched atmosphere). After incubation, the reaction medium was aspirated and the cells were rinsed three times with cold media. Cell-associated radioactivity was determined using a Packard Riastar gamma counter. The percent of bound radioligand was plotted against the increasing concentrations of the metallated conjugate to determine the IC₅₀ value. IC₅₀ values were determined by curve fitting using Prism Software (version 6.0). For the PSMA-positive assay, the binding affinity was measured using the N-acetylated-α-linked acidic dipeptidase (NAALADase) assay. […] (increasing concentrations 1×10⁻¹³-1×10⁻⁵ M) in 50 μL of Tris-HCl buffer (50 mM, pH=7.4) were incubated with LNCaP tissue culture homogenized cell membranes for a period of 45 min. Then, [N-acetyl aspartyl ³H-glutamate] was added to the reaction mixture and the solution was allowed to incubate for an additional 15 min at 37° C. The enzymatic reaction was stopped by addition of 50 μL of cold sodium phosphate buffer (0.1 M, pH=7.4). [N-acetyl aspartyl ³H-glutamate] and [³H-glutamate] were resolved by cation exchange chromatography using AG 50 W-X8 columns (200-400 mesh). Columns were pre-equilibrated with 0.2 M HCl prior to loading of the reaction mixture. Fractions containing [³H-glutamate] were eluted using 6 mL of 2 M HCl. Scintillation cocktail was added to each fraction and the amount of radioactivity in each was determined by liquid scintillation counting. The percent of bound radioligand was plotted against the increasing concentrations of the conjugate to determine the IC₅₀ value. IC₅₀ values were determined by curve fitting using Prism Software (version 6.0).
On the technique in general: Loss of bound radioactivity is the signal in a displacement assay; it reports binding, not function.

Assay [3] deals with T1, gastrin-releasing peptide receptor. The assay is described as follows: competitive displacement of 125I-[Tyr4]BBN on human prostate PC-3 cells (FIG. 2). The method, then:
as §1, with “6.0).” for “6.0). For the PSMA-positive assay, the binding affinity was measured using the N-acetylated-α-linked acidic dipeptidase (NAALADase) assay.”, “[N-acetyl aspartyl ³H-glutamate] and [³H-glutamate] were resolved by cation exchange chromatography using AG 50 W-X8 columns (200-400 mesh). Columns were pre-equilibrated with 0.2 M HCl prior to loading of the reaction mixture. Fractions containing [³H-glutamate] were eluted using 6 mL of 2 M HCl.” left out, “The percent of bound radioligand was plotted against the increasing concentrations of the conjugate to determine the IC₅₀ value.” left out

Square brackets hold non-standard residues; d marks the D form. * marks the point of attachment. DUPA = PSMA-binding small-molecule urea, O=C(O)CC[C@H](NC(=O)N[C@@H](CCC(=O)*)C(=O)O)C(=O)O; DOTA = O=C(O)CN1CCN(CC(=O)O)CCN(CC(=O)*)CCN(CC(=O)O)CC1; Sta = CC(C)C[C@H](N)[C@@H](O)CC(=O)O; 4Abz = Nc1ccc(C(=O)O)cc1; Ahx = NCCCCCC(=O)O; Ava = NCCCCC(=O)O

prostate specific membrane antigen, sequence (Q04609 whole entry): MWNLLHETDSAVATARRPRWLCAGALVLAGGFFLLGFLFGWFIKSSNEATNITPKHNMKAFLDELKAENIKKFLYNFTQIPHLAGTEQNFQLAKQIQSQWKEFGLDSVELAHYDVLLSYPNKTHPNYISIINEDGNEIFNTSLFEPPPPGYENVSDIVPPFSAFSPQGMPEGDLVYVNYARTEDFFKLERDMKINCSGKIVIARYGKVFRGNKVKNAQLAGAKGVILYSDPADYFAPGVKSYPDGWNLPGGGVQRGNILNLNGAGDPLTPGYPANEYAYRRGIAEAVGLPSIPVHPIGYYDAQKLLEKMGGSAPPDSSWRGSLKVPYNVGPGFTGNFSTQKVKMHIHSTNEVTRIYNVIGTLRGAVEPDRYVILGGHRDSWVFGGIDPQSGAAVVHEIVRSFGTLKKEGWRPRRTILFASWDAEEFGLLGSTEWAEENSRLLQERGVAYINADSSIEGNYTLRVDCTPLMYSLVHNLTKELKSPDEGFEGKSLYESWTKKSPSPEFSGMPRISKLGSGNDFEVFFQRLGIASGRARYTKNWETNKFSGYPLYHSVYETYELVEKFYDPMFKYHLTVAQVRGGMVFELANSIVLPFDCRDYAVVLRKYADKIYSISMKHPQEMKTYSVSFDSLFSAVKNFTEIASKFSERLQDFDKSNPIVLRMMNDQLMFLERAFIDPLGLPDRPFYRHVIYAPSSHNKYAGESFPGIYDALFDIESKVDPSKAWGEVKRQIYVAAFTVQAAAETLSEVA
T1 sequence (P30550 whole entry): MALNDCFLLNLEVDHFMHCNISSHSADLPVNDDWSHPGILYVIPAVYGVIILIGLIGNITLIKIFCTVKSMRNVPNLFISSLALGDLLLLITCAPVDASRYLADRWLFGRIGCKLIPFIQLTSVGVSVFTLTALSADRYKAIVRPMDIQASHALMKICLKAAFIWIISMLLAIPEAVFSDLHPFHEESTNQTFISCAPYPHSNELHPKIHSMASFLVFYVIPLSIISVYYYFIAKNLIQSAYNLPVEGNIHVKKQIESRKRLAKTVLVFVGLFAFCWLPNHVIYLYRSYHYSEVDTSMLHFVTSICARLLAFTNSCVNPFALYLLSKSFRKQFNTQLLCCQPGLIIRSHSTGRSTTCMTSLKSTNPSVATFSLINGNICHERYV

As for {DUPA-Ahx}-K(DOTA)[4Abz][dF]QWAVGH[Sta]L-NH2 (also: DOTA complexed with natural indium) [[DUPA-6-Ahx-[^natIn-DOTA-AMBA-RM2]], the “IC50 LNCaP cells (NAALADase assay, [N-acetyl aspartyl 3H-glutamate] substrate, LNCaP homogenized cell membranes)” value (shortened to “IC50 LNCaP cells”) in assay [1] worked out at 14.9 nM.

B1: [DUPA-6-Ahx-[DOTA]-AMBA-RM2] (peptide)
peptide: {DUPA-Ahx}-K(DOTA)[4Abz][dF]QWAVGH[Sta]L-NH2
notes: Unmetallated bivalent conjugate; also called [DUPA-6-Ahx-Lys[DOTA]-X-RM2], X=AMBA
In assay [2], B1 gave an IC50 of 5.27 nM.

B2: [DUPA-6-Ahx-Lys(DOTA)-6-Ahx-RM2] (peptide)
peptide: {DUPA-Ahx}-K(DOTA)[Ahx][dF]QWAVGH[Sta]L-NH2
SMILES: CC(C)C[C@H](NC(=O)C[C@H](O)[C@H](CC(C)C)NC(=O)[C@H](Cc1c[nH]cn1)NC(=O)CNC(=O)[C@@H](NC(=O)[C@H](C)NC(=O)[C@H](Cc1c[nH]c2ccccc12)NC(=O)[C@H](CCC(N)=O)NC(=O)[C@@H](Cc1ccccc1)NC(=O)CCCCCNC(=O)[C@H](CCCCNC(=O)CN1CCN(CC(=O)O)CCN(CC(=O)O)CCN(CC(=O)O)CC1)NC(=O)CCCCCNC(=O)CC[C@H](NC(=O)N[C@@H](CCC(=O)O)C(=O)O)C(=O)O)C(C)C)C(N)=O
notes: Unmetallated bivalent conjugate; also called [DUPA-6-Ahx-[DOTA]-6-Ahx-RM2]; [DUPA-6-Ahx-Lys[DOTA]-X-RM2], X=6-Ahx
As for B2, the results for the IC50 in assay [3] and in assay [2] were 3.99 nM and 3.85 nM, respectively.

B3: [DUPA-6-Ahx-[DOTA]-5-Ava-RM2] (peptide)
peptide: {DUPA-Ahx}-K(DOTA)[Ava][dF]QWAVGH[Sta]L-NH2
notes: Unmetallated bivalent conjugate; also called [DUPA-6-Ahx-Lys[DOTA]-X-RM2], X=5-Ava; [DUPA-6-Ahx-Lys(DOTA)-X-RM2] formula (I), X=5-aminovaleric acid
As to B3, in assay [1], the “IC50 LNCaP cells” value stood at 11.2 nM. This molecule also had an IC50 in assay [2] of 5.14 nM.
Take {DUPA-Ahx}-K(DOTA)[Ava][dF]QWAVGH[Sta]L-NH2 (also: DOTA complexed with natural indium) [[DUPA-6-Ahx-[^natIn-DOTA]-5-Ava- RM2]]: in assay [1], the “IC50 LNCaP cells” value came to 14.4 nM.
